Where a chain is given by its changes, count along the chain named.
How the values were obtained:
Assay in all cases: ELISA, antibody coated, OX40-ECD.His mutant supernatant; relative to silent alanine substitutions;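 note: captured OX40 mutant protein detected with HRP-labelled anti-His antibody, absorbance read-out, scaled to the mean signal of control mutants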
human OX40-ECD.His T154A = target: T1, human OX40-ECD.His T154A (human, UniProt P43489 29-214)
T1 construct: extracellular domain; not shown: C-terminal His-tag
T1 sequence (looked up): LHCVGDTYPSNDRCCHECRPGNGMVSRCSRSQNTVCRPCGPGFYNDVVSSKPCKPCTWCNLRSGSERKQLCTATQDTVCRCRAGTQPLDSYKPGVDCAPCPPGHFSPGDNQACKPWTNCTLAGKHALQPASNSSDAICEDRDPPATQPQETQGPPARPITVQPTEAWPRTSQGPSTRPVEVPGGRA

human OX40-ECD.His R95A = target: T2, human OX40-ECD.His R95A (human, UniProt P43489 29-214)
T2 construct: extracellular domain; not shown: C-terminal His-tag
T2 sequence (looked up): T1 sequence (looked up) with R67A, A126T

human OX40-ECD.His A140G = target: T3, human OX40-ECD.His A140G (human, UniProt P43489 29-214)
T3 construct: extracellular domain; not shown: C-terminal His-tag
T3 sequence (looked up): T1 sequence (looked up) with A112G, A126T

human OX40-ECD.His A101G = target: T4, human OX40-ECD.His A101G (human, UniProt P43489 29-214)
T4 construct: extracellular domain; not shown: C-terminal His-tag
T4 sequence (looked up): T1 sequence (looked up) with A73G, A126T

human OX40-ECD.His N138A = target: T5, human OX40-ECD.His N138A (human, UniProt P43489 29-214)
T5 construct: extracellular domain; not shown: C-terminal His-tag
T5 sequence (looked up): T1 sequence (looked up) with N110A, A126T

human OX40-ECD.His G92A = target: T6, human OX40-ECD.His G92A (human, UniProt P43489 29-214)
T6 construct: extracellular domain; not shown: C-terminal His-tag
T6 sequence (looked up): T1 sequence (looked up) with G64A, A126T

human OX40-ECD.His E167A = target: T7, human OX40-ECD.His E167A (human, UniProt P43489 29-214)
T7 construct: extracellular domain; not shown: C-terminal His-tag
T7 sequence (looked up): T1 sequence (looked up) with A126T, E139A

human OX40-ECD.His E45A = target: T8, human OX40-ECD.His E45A (human, UniProt P43489 29-214)
T8 construct: extracellular domain; not shown: C-terminal His-tag
T8 sequence (looked up): T1 sequence (looked up) with E17A, A126T

human OX40-ECD.His D168A = target: T9, human OX40-ECD.His D168A (human, UniProt P43489 29-214)
T9 construct: extracellular domain; not shown: C-terminal His-tag
T9 sequence (looked up): T1 sequence (looked up) with A126T, D140A

human OX40-ECD.His P143A = target: T10, human OX40-ECD.His P143A (human, UniProt P43489 29-214)
T10 construct: extracellular domain; not shown: C-terminal His-tag
T10 sequence (looked up): T1 sequence (looked up) with P115A, A126T

- Fold Change (human OX40-ECD.His T154A): 0.843
- Fold Change (human OX40-ECD.His R95A): 0.996
- Fold Change (human OX40-ECD.His A140G): 0.969
- Fold Change (human OX40-ECD.His A101G): 0.881
- Fold Change (human OX40-ECD.His N138A): 0.73
- Fold Change (human OX40-ECD.His G92A): 0.233
- Fold Change (human OX40-ECD.His E167A): 0.998
- Fold Change (human OX40-ECD.His E45A): 1.02
- Fold Change (human OX40-ECD.His D168A): 0.983
- Fold Change (human OX40-ECD.His P143A): 0.92
B1: 1.134.9-u1-IgG1L (antibody, V domains shown)
VH: QVQLQESGPGLVKPSGTLSLTCAVSGGSISSYNWWSWVRQPPGKGLEWIGEIYHGGNTNYNPSLKSRVTMSVDNSKNQFSLKLSSVTAADTAVYYCARAPGDWGGSPYFDFWGQGTLVTVSS
VL: SSELTQDPAVSVALGQTVRITCQGDNLRTYYASWYQQKPGQAPILLIYGRNKRPSGIPDRFSGSSSGNTASLTITGAQAEDEAAYYCNSRDSSGNPVVFGGGTKLTVL
notes: fully human IgG1, lambda

— patent US20210171647A1 (WUXI BIOLOGICS SHANGHAI, published 2021)
